These results are taken from article PMC11347149.

In data set [1] the target is T1, His6C-CoxC (LytTR DNA-binding domain) (Afipia carboxidovorans OM5) (UniProt Q9KX27).
T1 sequence: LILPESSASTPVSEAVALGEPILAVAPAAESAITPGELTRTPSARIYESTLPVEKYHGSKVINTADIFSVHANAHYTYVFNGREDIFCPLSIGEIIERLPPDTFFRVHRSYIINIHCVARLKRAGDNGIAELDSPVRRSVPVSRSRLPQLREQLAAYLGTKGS
The data set is described as follows: EMSA. Conditions: EMSA: 20 mM Tris-HCl pH 7.5, 50 mM KCl, 2 mM beta-mercaptoethanol, 10% glycerol, 250 ug/ml BSA, 50 ug/ml salmon sperm DNA, 1 mM DTT, 1 mM dithionite, 2 ng ….

Data set [2] has as its system His6C-CoxC (LytTR DNA-binding domain) (Afipia carboxidovorans OM5). The data set is described as follows: EMSA. Conditions: EMSA: 20 mM Tris-HCl pH 7.5, 50 mM KCl, 2 mM beta-mercaptoethanol, 10% glycerol, 250 ug/ml BSA, 50 ug/ml salmon sperm DNA, 1 mM DTT, 1 mM dithionite, 2 ng ….

Consider “AATTCCAGTTCATGCGTATGTTACCGCCGTTGGTGGAATTTGGAAGTCGTTTGGGCAAAAGCCTTTGATGCTGCTTTGCGGCAACTTCTATCGTGCCCCACGAACGTCGCATCATAAGAAATGTGACGCCCGGGGGGGACAACGCAAATGGGTTGCGAAAATATGCAGGCGCGGCAAGCACCGTGTCGCCAAGCTAGGCATTTGGCTCAAACTGTCCCCTCGAAGCTCTCTTCAACTGCTGCAAAGCATCGACCGCATTTTCGCGGACGATATTGGGATCCCG (double strand) [PcoxB]”, for which, in data set [1], the dissociation constant (Kd) was found to be 0.025 µM and the binding result is “binds”.

As for PcoxB, the Kd in data set [2] is 0.025 µM.
